This note sets out measurements from patent US20240400677A1 (ELECTRA THERAPEUTICS, published 2024).

For assay [1], the target named is T1, human SIRPβ1 on CHO cells (co-transfected with DAP12) (human, UniProt O00241 30-398).
T1 construct: whole, on cells; co-transfected with DAP12; also called Human SIRPβ1 CHO
The assay can be described thus: flow cytometry. For orientation: Flow cytometry measures light scatter and fluorescence of single cells or particles in a stream.

In assay [2] the target is T2, cynomolgus monkey SIRPγ on CHO cells (cynomolgus monkey, UniProt Q9P1W8 29-386 (human entry)).
T2 construct: also called Cyno SIRPγ CHO
T2 chain: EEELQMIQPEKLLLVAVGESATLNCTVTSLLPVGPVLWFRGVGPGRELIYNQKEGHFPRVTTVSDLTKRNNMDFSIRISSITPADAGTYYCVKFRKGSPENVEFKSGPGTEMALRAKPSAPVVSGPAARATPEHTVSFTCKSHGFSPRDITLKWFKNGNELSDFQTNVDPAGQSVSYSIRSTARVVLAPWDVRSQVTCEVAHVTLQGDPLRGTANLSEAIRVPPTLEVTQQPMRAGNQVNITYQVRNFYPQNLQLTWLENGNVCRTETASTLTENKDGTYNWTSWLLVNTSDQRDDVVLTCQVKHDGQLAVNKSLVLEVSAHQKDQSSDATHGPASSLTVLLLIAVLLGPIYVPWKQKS
The assay can be described thus: flow cytometry, myc-scFv PPE. The method in brief:
(§1)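 Stably transfected CHO cells were incubated with titrated antibodies, and binding was detected with a fluorescent anti-human IgG secondary. Median fluorescence intensity was recorded at each concentration. For the myc-scFv format, crude periplasmic extract was incubated with the SIRP-expressing lines and parental CHO-K1, and fold change <2.0 was scored as non-binder.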

For assay [3], the target named is T3, cynomolgus monkey SIRPα on CHO cells (cynomolgus monkey, UniProt A0A2K5VYQ9 31-507).
T3 construct: whole, on cells; also called Cyno SIRPα CHO
T3 sequence: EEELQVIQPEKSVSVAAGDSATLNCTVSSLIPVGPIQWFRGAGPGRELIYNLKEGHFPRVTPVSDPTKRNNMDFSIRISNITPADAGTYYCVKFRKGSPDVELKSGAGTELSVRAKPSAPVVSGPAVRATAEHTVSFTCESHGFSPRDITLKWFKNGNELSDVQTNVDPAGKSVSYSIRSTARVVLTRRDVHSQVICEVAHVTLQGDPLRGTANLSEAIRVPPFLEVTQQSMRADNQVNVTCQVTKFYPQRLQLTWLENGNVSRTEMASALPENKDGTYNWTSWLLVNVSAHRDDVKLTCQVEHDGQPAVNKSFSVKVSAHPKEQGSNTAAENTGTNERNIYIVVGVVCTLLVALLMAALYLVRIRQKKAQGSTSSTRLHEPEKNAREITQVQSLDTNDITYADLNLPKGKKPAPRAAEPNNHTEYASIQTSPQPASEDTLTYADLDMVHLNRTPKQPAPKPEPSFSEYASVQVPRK
The assay can be described thus: flow cytometry, myc-scFv PPE. An outline of the steps: as §1

Assay [4] concerns the target T4, human SIRPγ on stably transfected CHO cells (human, UniProt Q9P1W8 29-387).
T4 construct: also called Human SIRPγ CHO
The assay can be described thus: flow cytometry, myc-scFv PPE. An outline of the steps: as §1

For assay [5], the target named is T5, human SIRPγ-His monomer protein (human, UniProt Q9P1W8 29-360).
T5 construct: also called hSIRPγ
T5 sequence (Q9P1W8 29-360 limits assumed): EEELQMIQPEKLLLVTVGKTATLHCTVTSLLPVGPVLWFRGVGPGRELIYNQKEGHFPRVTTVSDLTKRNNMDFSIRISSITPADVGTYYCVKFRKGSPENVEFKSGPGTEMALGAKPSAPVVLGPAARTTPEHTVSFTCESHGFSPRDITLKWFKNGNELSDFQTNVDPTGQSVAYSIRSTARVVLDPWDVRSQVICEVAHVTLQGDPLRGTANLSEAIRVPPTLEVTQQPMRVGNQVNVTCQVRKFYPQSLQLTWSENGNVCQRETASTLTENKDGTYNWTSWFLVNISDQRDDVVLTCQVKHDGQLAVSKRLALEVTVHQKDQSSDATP
The assay can be described thus: BLI Octet, V5-scFv PPE captured, SIRP-His 500 nM. (Biolayer interferometry detects binding as a change in optical thickness at a sensor tip.)

The target in assay [6] is T3, cynomolgus monkey SIRPα on CHO cells. The assay can be described thus: flow cytometry.
In assay [7] the target is T6, cynomolgus monkey SIRPγ-His monomer protein (cynomolgus monkey, UniProt Q9P1W8 29-359 (human entry), limits assumed).
T6 construct: also called Cyno SIRPγ; Cyno SIRPγ-His
T6 chain: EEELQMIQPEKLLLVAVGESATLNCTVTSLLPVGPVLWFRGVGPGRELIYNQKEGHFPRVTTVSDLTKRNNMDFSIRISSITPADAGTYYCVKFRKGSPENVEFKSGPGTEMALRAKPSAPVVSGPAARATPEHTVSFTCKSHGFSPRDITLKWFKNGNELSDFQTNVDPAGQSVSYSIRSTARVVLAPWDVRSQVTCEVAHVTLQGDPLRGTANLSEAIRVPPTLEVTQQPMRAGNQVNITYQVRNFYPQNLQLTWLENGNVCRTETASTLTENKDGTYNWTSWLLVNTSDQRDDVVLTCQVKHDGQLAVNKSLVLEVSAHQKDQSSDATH
The assay can be described thus: BLI Octet, captured scFv PPE, cyno SIRP. An outline of the steps:
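Bio-layer interferometry used biotinylated anti-V5 on streptavidin sensors to capture V5-tagged scFv from crude periplasmic extract. Monomeric His-tagged SIRP protein at 500 nM was associated, then dissociated in wash buffer. Off-rate (kdis) was analyzed from the kinetic traces.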

Assay [8] has as its target T7, human SIRPα V2-His monomer protein (human, UniProt P78324 31-370, limits assumed).
T7 construct: the V2 allele differs from the canonical UniProt P78324 entry
The assay can be described thus: BLI Octet, V5-scFv PPE captured, SIRP-His 500 nM.

For assay [9], the target named is T8, human SIRPβ1-His monomer protein (human, UniProt O00241 30-371, limits assumed). The assay can be described thus: BLI Octet, V5-scFv PPE captured, SIRP-His 500 nM.
T8 sequence (O00241 30-371 limits assumed): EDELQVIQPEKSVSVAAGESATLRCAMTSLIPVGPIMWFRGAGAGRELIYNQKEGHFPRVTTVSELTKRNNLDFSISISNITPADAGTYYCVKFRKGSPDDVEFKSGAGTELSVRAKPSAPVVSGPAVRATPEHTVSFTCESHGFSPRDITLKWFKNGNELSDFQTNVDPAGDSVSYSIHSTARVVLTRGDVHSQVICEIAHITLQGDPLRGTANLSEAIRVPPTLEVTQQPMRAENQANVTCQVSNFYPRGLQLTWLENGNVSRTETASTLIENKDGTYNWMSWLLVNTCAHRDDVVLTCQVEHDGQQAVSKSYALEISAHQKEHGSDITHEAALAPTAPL
In assay [10] the target is T7, human SIRPα V2-His monomer protein. The assay can be described thus: BLI. As to the method:
(§2) Select antibodies from Example 1 of the disclosure were tested for their affinities to human SIRPγ, cynomolgus monkey SIRPγ, human SIRPαV1, human SIRPαV2, and human SIRPβ1 using a biolayer interferometry (BLI) Octet system (Pall ForteBio). Each antibody was immobilized on a biosensor tip by an anti-human IgG capture (AHC). […] The biosensors were then exposed to wash buffer to measure off-rate kinetics. The resulting kinetic data were analyzed and fitted using a 1:1 binding model.

Assay [11] addresses T8, human SIRPβ1-His monomer protein. The assay can be described thus: BLI. Here is the method:
as §2

In assay [12] the target is T5, human SIRPγ-His monomer protein. The assay can be described thus: BLI Octet, antibody on AHC, SIRP-His monomer, 1:1 model. Here is the method: as §2
The target of assay [13] is T6, cynomolgus monkey SIRPγ-His monomer …. Described as above. As to the method:
as §2

For assay [14], the target named is T9, Human SIRPαV2 (plate-coated extracellular domain) (Homo sapiens, UniProt P78324).
T9 construct: extracellular domain
T9 sequence (P78324 other isoform, or with tags, fused parts or gaps limits assumed): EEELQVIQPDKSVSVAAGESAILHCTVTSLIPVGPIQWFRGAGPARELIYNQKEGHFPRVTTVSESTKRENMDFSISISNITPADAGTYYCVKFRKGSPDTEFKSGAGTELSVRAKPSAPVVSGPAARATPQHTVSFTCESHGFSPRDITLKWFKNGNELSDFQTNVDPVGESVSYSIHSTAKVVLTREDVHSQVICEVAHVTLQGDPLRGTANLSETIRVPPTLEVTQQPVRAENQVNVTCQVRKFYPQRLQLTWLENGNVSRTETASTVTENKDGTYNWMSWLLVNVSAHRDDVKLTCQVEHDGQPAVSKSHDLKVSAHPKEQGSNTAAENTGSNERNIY
The assay can be described thus: ELISA, coated SIRP ECD (2 µg/mL), anti-human IgG, luminescence. An outline of the steps: (§3)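 Plate-coated SIRP extracellular domain (2 μg/mL), blocked, then exposed to purified antibodies in titration, after transient expression in Expi293F cells for 5 days and Protein A purification. Bound antibody is detected with anti-human IgG and a chemiluminescent substrate, and reported as relative luminescence units.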
A general note: ELISA stands for enzyme-linked immunosorbent assay.

Assay [15] concerns the target T10, extracellular binding domain of human SIRPγ (plate-coated) (human, UniProt Q9P1W8 29-360).
T10 construct: also called hSIRPγ
The description is as above. The method in brief: as §3

T4 sequence (Q9P1W8 29-387 limits assumed): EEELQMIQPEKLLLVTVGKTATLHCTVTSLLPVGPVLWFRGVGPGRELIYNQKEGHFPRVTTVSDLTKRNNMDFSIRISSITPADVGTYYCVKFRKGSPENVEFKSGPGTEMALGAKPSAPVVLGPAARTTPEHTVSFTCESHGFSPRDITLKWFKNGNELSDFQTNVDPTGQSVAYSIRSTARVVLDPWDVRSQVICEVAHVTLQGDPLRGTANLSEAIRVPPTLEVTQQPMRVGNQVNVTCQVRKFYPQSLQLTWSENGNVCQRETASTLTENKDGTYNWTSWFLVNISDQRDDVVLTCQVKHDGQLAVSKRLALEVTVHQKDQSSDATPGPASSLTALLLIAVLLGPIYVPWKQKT
T7 sequence (P78324 other isoform, or with tags, fused parts or gaps limits assumed): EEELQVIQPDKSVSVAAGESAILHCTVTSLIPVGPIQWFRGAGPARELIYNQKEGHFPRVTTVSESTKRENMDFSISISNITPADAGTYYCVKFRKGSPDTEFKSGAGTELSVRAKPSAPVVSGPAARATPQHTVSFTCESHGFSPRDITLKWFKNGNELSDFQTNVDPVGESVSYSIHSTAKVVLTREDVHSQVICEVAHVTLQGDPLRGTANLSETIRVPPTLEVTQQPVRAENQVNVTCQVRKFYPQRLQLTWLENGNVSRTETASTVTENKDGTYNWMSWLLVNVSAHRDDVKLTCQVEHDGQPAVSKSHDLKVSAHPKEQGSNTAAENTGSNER
T10 sequence (Q9P1W8 29-360 limits assumed): as the sequence (Q9P1W8 29-360 limits assumed) above
T1 sequence (O00241 30-398): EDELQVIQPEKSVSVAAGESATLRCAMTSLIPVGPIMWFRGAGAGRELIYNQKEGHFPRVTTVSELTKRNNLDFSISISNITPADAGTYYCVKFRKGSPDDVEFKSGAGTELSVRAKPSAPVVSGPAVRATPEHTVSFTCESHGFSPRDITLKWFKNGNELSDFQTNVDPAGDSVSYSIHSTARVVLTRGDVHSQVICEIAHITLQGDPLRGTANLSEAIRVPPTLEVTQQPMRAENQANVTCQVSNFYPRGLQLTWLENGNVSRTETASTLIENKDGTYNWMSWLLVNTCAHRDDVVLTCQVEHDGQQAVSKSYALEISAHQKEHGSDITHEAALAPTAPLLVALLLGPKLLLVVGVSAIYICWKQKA

B1: Antibody 19 (scFv, V domains shown)
VH: QVQLVQSGAEVKKPGASVKVSCKASGYTFTAYYMHWVRQAPGQGLEWMGIINPSGGSTSYAQKFQGRVTMTRDTSTSTVYMELSSLRSEDTAVYYCARDSGWYAPGYYYGMDVWGQGTTVTVSS
VL: DIQMTQSPSSLSASVGDRVTITCRASESISHWLAWYQQKPGKAPKLLIYGASTLQSGVPSRFSGSGSGTDFTLTISSLQPEDFATYYCQQSYTPPLTFGGGTKVEIK
notes: scFv in crude PPE, V5/myc-tagged
Regarding B1, in assay [1], the binding result is listed as “no binding (tested: fold change <2.0)”. Besides, the “MFI fold change over parental CHO” value in [2] was 36.6 fold; in assay [3], 2.01 fold; in assay [4], 43.3 fold. In assay [5], the kdis was < 0.001 s⁻¹.

B2: Antibody 28 (scFv, V domains shown)
VH: QVQLVQSGAEVKKPGASVKVSCKASGYTFTSYNIHWVRQAPGQGLEWMGWISAYNGNTNYAQKLQGRVTMTRDTSTSTVYMELSSLRSEDTAVYYCALDGGQLGVAFDIWGQGTMVTVSS
VL: DIQMTQSPSSLSASVGDRVTITCRASQGISNWLAWYQQKPGKAPKLLIYDASNLDAGVPSRFSGSGSGTDFTLTISSLQPEDFATYYCQQANSLPLTFGGGTKVEIK
notes: as for B1
In the case of B2, the values for the binding result in assay [6] and in assay [7] were “no binding (tested: fold change <2.0)” and “binds”, respectively. The “MFI fold change over parental CHO” value is 24 fold in assay [2] and 46.5 fold in assay [4]. Besides, the kdis in assay [5] was 0.001 to 0.01 s⁻¹; in assay [8], 0.001 to 0.01 s⁻¹; in assay [9], < 0.001 s⁻¹.

B3: Antibody 7 (antibody, V domains shown)
VH: QVQLVESGGGVVQPGRSLRLSCAASGFTFSNYGMHWVRQAPGKGLEWVAFIWYDGSNKNYADSVKGRFTISRDNPTNTLYLQMNSLRAEDTAVYYCAREEQWLDYWGQGTLVTVSS
VL: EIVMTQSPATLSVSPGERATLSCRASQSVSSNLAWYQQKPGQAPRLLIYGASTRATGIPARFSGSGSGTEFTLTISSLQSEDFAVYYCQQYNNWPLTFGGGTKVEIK
One may read the Kd as the equilibrium constant for the complex coming apart. For orientation: EC50 (read off the curve) means the concentration giving half of the maximal effect. Turning to B3, the binding result in [10] was “no binding (tested: 300 nM)”; in assay [11], “no binding (tested: 300 nM)”; in assay [14] it was “no binding (tested: about 40 µg/mL)”. In addition, the Kd in [12] was 296 nM; in [13], 2200 nM. Moreover, in [15], the half-maximal effective concentration (EC50 (read off the curve)) was ~0.3 µg/mL.
